From PMC11649694, “ZBTB48 is a priming factor regulating B-cell-specific CIITA expression” come the findings set out here.

The data set concerns the target T1, ZBTB48 ZnF10-11-C (Homo sapiens, UniProt P10074 548-620).
T1 sequence: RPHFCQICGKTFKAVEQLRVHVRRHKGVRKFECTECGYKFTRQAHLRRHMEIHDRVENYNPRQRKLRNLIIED
Description: X-ray crystallography; ZnF11 contacts G10G11G12; R614 contacts G12 and C8T9 of other strand; Pull-down: 150 mM NaCl, 50 mM Tris-HCl pH 7.5, 5 mM MgCl2, 0.5% Igepal CA-630, 1 mM DTT, 20 ug salmon sperm DNA, 4 C 2 h; crystals: 0.2 M imidazole malate pH 8.5, 20% PEG 4K, 20 C. The settings on record: protein: recombinant; tags: GST removed by TEV; 5' overhang 1 nt at both ends, 15 bp.

B1: CIITA e.2 crystal duplex (dsDNA)
DNA 1: CACAAGTGAGGGATCA
DNA 2: GTGATCCCTCACTTGT
Take B1: the binding result is reported as “binds”.
